{"source": "paper PMC3471383", "origin": "cited, not measured here", "biological_target": "FcγRI (Homo sapiens) (UniProt P12314)", "sequence (P12314 16-292)": "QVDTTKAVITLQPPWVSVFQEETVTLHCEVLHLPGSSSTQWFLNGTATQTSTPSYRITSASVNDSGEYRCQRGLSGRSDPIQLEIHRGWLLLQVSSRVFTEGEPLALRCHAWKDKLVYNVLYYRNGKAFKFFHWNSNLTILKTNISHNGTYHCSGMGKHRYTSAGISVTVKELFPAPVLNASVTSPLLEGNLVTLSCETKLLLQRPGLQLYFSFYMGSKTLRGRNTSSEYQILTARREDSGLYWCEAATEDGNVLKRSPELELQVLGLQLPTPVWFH", "data": [{"substance": "SAP (from UniProt P02743)", "values": [{"measurement": "Kd", "result": 0.5, "unit": "µM"}]}]}
